Like-named read-outs stand apart in the source and are kept apart here. Values belong to the binder of their own block, whether it stands above or below them.
What was measured:
Experiment in all cases: pull-down
[1] = target: fibrillarin F>S (six phenylalanines of the N-terminal GF-IDR replaced with serines) (human) (UniProt P22087)
[2] = target: fibrillarin F>S (six phenylalanines of the N-terminal GF-IDR replaced with serines) (human) (UniProt P22087); remark: listed apart in the source
[3] = target: T1, MBP-fibrillarin (full-length) (human, UniProt P22087 1-321)
T1 sequence (looked up): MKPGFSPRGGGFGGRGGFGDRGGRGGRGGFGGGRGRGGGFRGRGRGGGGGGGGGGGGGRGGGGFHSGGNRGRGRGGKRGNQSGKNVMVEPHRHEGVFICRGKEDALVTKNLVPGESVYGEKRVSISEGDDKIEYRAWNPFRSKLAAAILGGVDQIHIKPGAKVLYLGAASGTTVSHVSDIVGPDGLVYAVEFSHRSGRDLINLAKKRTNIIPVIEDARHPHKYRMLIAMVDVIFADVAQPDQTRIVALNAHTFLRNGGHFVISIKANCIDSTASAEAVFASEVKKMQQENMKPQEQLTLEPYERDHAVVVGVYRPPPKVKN

MBP-GAR1 (full-length) = target: T2, MBP-GAR1 (full-length) (human, UniProt Q9NY12 1-217)
T2 sequence (looked up): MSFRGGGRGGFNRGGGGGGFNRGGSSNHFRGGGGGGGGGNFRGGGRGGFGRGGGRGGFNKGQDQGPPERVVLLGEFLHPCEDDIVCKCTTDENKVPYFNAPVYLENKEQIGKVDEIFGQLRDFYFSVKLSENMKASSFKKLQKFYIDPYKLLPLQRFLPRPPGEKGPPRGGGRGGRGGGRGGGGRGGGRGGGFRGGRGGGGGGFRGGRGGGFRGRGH

MBP-NOP58 ΔNLS (human) = MBP-NOP58 ΔNLS (human) (UniProt Q9Y2X3)
MBP-NOP58 ΔNLS (human), sequence (Q9Y2X3 whole entry, stated change not applied, the tested form may be a part): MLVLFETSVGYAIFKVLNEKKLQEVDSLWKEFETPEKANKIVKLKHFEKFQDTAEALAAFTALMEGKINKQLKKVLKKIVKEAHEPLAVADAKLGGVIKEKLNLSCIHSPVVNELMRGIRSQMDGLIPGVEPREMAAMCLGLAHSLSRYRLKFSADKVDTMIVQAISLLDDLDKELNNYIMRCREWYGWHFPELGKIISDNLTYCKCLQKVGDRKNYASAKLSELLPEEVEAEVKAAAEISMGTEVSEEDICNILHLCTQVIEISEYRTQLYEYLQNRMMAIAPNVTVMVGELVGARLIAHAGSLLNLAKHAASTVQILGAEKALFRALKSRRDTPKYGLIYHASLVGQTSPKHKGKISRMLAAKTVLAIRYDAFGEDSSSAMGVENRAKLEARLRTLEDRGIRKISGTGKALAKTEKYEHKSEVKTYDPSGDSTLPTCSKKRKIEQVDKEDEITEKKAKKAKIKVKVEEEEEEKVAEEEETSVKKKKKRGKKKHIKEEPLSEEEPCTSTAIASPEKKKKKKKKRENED

[4] = target: T3, MBP fused to the C-terminal NLS IDR of NAP57 (92aa) (human)
T3 sequence (O60832 whole entry, looked up): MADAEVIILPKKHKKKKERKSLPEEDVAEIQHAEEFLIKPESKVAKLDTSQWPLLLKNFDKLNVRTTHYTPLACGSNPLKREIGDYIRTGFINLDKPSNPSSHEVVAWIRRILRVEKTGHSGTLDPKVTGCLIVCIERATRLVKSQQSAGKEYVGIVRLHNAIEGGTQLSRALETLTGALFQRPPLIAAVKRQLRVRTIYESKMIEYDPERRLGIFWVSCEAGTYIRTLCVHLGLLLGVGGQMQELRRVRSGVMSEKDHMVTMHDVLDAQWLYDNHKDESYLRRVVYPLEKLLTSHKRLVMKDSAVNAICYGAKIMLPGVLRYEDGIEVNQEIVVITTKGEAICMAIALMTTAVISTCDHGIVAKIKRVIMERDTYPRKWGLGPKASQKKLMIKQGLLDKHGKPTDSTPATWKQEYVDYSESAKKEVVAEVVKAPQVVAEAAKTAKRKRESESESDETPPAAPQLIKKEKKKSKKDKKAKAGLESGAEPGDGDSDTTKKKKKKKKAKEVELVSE

reduction of binding relative to wild-type fibrillarin [1]: 35%
reduction of binding relative to wild-type fibrillarin [2]: 40%
binding result [3]: binds
binding result (MBP-GAR1 (full-length)): binds
B1: GST-GAR1 (natural protein, human, UniProt Q9NY12 1-217, looked up)
chain: MSFRGGGRGGFNRGGGGGGFNRGGSSNHFRGGGGGGGGGNFRGGGRGGFGRGGGRGGFNKGQDQGPPERVVLLGEFLHPCEDDIVCKCTTDENKVPYFNAPVYLENKEQIGKVDEIFGQLRDFYFSVKLSENMKASSFKKLQKFYIDPYKLLPLQRFLPRPPGEKGPPRGGGRGGRGGGRGGGGRGGGRGGGFRGGRGGGGGGFRGGRGGGFRGRGH

GFP-Nopp140 pulled down relative to WT MBP-NOP58 (MBP-NOP58 ΔNLS (human)): 20%
B2: GFP-Nopp140 (phosphorylated) (natural protein)
chain: MADAGIRRVVPSDLYPLVLGFLRDNQLSEVANKFAKATGATQQDANASSLLDIYSFWLKSAKVPERKLQANGPVAKKAKKKASSSDSEDSSEEEEEVQGPPAKKAAVPAKRVGLPPGKAAAKASESSSSEESSDDDDEEDQKKQPVQKGVKPQAKAAKAPPKKAKSSDSDSDSSSEDEPPKNQKPKITPVTVKAQTKAPPKPARAAPKIANGKAASSSSSSSSSSSSDDSEEEKAAATPKKTVPKKQVVAKAPVKAATTPTRKSSSSEDSSSDEEEEQKKPMKNKPGPYSSVPPPSAPPPKKSLGTQPPKKAVEKQQPVESSEDSSDESDSSSEEEKKPPTKAVVSKATTKPPPAKKAAESSSDSSDSDSSEDDEAPSKPAGTTKNSSNKPAVTTKSPAVKPAAAPKQPVGGGQKLLTRKADSSSSEEESSSSEEEKTKKMVATTKPKATAKAALSLPAKQAPQGSRDSSSDSDSSSSEEEEEKTSKSAVKKKPQKVAGGAAPSKPASAKKGKAESSNSSSSDDSSEEEEEKLKGKGSPRPQAPKANGTSALTAQNGKAAKNSEEEEEEKKKAAVVVSKSGSLKKRKQNEAAKEAETPQAKKIKLQTPNTFPKRKKGEKRASSPFRRVREEEIEVDSRVADNSFDAKRGAAGDWGERANQVLKFTKGKSFRHEKTKKKRGSYRGGSISVQVNSIKFDSE
modifications: serines of the acidic serine repeats phosphorylated (expressed in insect cells to be fully phosphorylated)

Nopp140 pulled down relative to full-length NAP57 [4]: 50%
B3: Nopp140 (phosphorylated, hexa histidine tagged) (natural protein)
chain: MADAGIRRVVPSDLYPLVLGFLRDNQLSEVANKFAKATGATQQDANASSLLDIYSFWLKSAKVPERKLQANGPVAKKAKKKASSSDSEDSSEEEEEVQGPPAKKAAVPAKRVGLPPGKAAAKASESSSSEESSDDDDEEDQKKQPVQKGVKPQAKAAKAPPKKAKSSDSDSDSSSEDEPPKNQKPKITPVTVKAQTKAPPKPARAAPKIANGKAASSSSSSSSSSSSDDSEEEKAAATPKKTVPKKQVVAKAPVKAATTPTRKSSSSEDSSSDEEEEQKKPMKNKPGPYSSVPPPSAPPPKKSLGTQPPKKAVEKQQPVESSEDSSDESDSSSEEEKKPPTKAVVSKATTKPPPAKKAAESSSDSSDSDSSEDDEAPSKPAGTTKNSSNKPAVTTKSPAVKPAAAPKQPVGGGQKLLTRKADSSSSEEESSSSEEEKTKKMVATTKPKATAKAALSLPAKQAPQGSRDSSSDSDSSSSEEEEEKTSKSAVKKKPQKVAGGAAPSKPASAKKGKAESSNSSSSDDSSEEEEEKLKGKGSPRPQAPKANGTSALTAQNGKAAKNSEEEEEEKKKAAVVVSKSGSLKKRKQNEAAKEAETPQAKKIKLQTPNTFPKRKKGEKRASSPFRRVREEEIEVDSRVADNSFDAKRGAAGDWGERANQVLKFTKGKSFRHEKTKKKRGSYRGGSISVQVNSIKFDSE
modifications: serines of the acidic serine repeats phosphorylated (expressed in insect cells to be fully phosphorylated)
